T1: Ac-PLG˜S(OBn)-LL-Ahxh-Hynic
T1 chain: PLGSLL

T2: Ac-P-Cit-G˜Hphe-LA-Ahxh-Hynic (not fully specified)
T2 chain: PXGXLA

T3: Ac-PRQ˜ITA-Ahxh-Hynic
T3 chain: PRQITA

T4: Hynic-ff-Ahx-PLG˜Hphe-OLEE-OH
T4 chain: FFXPLGXXLEE

T5: Ac-Hpro-Cit-G˜Hphe-TA-Ahxh-Hynic (not fully specified)
T5 chain: XXGXTA

T6: Ac-PL-NLys˜Hphe-L-Ahxh-Ac[C14] (not fully specified)
T6 chain: PLXXL

T7: Piv-PLG˜LYT-Ahxh-Hynic
T7 chain: PLGLYT

T8: Ac-NLys-PLG˜Hphe-RLA-Ahxh-Hynic (not fully specified)
T8 chain: XPLGXRLA

T9: Ac-PLG˜Hphe-YL-Hynic
T9 chain: PLGXYL

T10: NLys-NLys-PLG˜Hphe-YL-Ahxh-Hynic
T10 chain: XXPLGXYL

T11: Ac-PLG˜Hphe-YLR-Ahxh-Hynic
T11 chain: PLGXYLR

T12: Ac-NGlu-PLG˜Hphe-YL-Ambh-Hynic (not fully specified)
T12 chain: XPLGXYL

T13: Ac-P-NLeu-G˜LL-Ahxh-Ac[C14] (not fully specified)
T13 chain: PXGLL

T14: Ac-PLG˜LHL-Ahxh-Hynic
T14 chain: PLGLHL

T15: Ac-P-DArg-R˜LTA-Ahxh-Hynic (not fully specified)
T15 chain: PRRLTA

T16: Ac-DArg-P-Aib-G˜Hphe-LA-Ahxh-Hynic (not fully specified)
T16 chain: RPXGXLA

T17: Ac-POG˜Hphe-Smc-T-Ahxh-Hynic
T17 chain: PXGXXT

T18: Ac-P-Cit-G˜Hphe-Cit-L-Ahxh-Hynic (not fully specified)
T18 chain: PXGXXL

T19: Ac-POG˜Hphe-LTR-Ahxh-Hynic
T19 chain: PXGXLTR

T20: Ac-PL-NLys-LL-dLeu-Ahxh-Ac[C14]
T20 chain: PLXLLL

T21: Ac-P-Cit-G˜Hphe-L-Ahxh-Hynic (not fully specified)
T21 chain: PXGXL

T22: Ac-PR-Cit˜LSA-Ahxh-Hynic
T22 chain: PRXLSA

T23: Ac-PLG˜Hphe-OL-Ambh-Hynic
T23 chain: PLGXXL

T24: Ac-P-Cit-G˜Hphe-LA-Ahxh-Ac[C14] (not fully specified)
T24 chain: PXGXLA

T25: H-DArg-P-Cit-G˜cLeu-LA-Ahxh-Hynic (not fully specified)
T25 chain: RPXGXLA

T26: Ac-PLG˜LYS-Ahxh-Ac[C14] (not fully specified)
T26 chain: PLGLYS

T27: Ac-PLG˜L-Cha-Ahxh-Hynic
T27 chain: PLGLX

T28: Ac-PLG˜LRA-Ahxh-Hynic (not fully specified)
T28 chain: PLGLRA

B1: human MMP-9 (protein)
chain: MRTPRCGVPDLGRFQTFEGDLKWHHHNITYWIQNYSEDLPRAVIDDAFARAFALWSAVTPLTFTRVYSRDADIVIQFGVAEHGDGYPFDGKDGLLAHAFPPGPGIQGDAHFDDDELWSLGKGVVVPTRFGNADGAACHFPFIFEGRSYSACTTDGRSDGLPWCSTTANYDTDDRFGFCPSERLYTQDGNADGKPCQFPFIFQGQSYSACTTDGRSDGYRWCATTANYDRDKLFGFCPTRADSTVMGGNSAGELCVFPFTFLGKEYSTCTSEGRGDGRLWCATTSNFDSDKKWGFCPDQGYSLFLVAAHEFGHALGLDHSSVPEALMYPMYRFTEGPPLHKDDVNGIRHLYGPRPEPEPRPPTTTTPQPTAPPTVCPTGPPTVHPSERPTAGPTGPPSAGPTGPPTAGPSTATTVPLSPVDDACNVNIFDAIAEIGNQLYLFKDGKYWRFSEGRGSRPQGPFLIADKWPALPRKLDSVFEERLSKKLFFFSGRQVWVYTGASVLGPRRLDKLGLGADVAQVTGALRSGRGKMLLFSGRRLWRFDVKAQMVDPRSASEVDRMFPGVPLDTHDVFQYREKAYFCQDRFYWRVSSRSELNQVDQVGYVTYDILQCPED
B2: MMP-2 (protein)
chain: APSPIIKFPGDVAPKTDKELAVQYLNTFYGCPKESCNLFVLKDTLKKMQKFFGLPQTGDLDQNTIETMRKPRCGNPDVANYNFFPRKPKWDKNQITYRIIGYTPDLDPETVDDAFARAFQVWSDVTPLRFSRIHDGEADIMINFGRWEHGDGYPFDGKDGLLAHAFAPGTGVGGDSHFDDDELWTLGEGQVVRVKYGNADGEYCKFPFLFNGKEYNSCTDTGRSDGFLWCSTTYNFEKDGKYGFCPHEALFTMGGNAEGQPCKFPFRFQGTSYDSCTTEGRTDGYRWCGTTEDYDRDKKYGFCPETAMSTVGGNSEGAPCVFPFTFLGNKYESCTSAGRSDGKMWCATTANYDDDRKWGFCPDQGYSLFLVAAHEFGHAMGLEHSQDPGALMAPIYTYTKNFRLSQDDIKGIQELYGASPDIDLGTGPTPTLGPVTPEICKQDIVFDGIAQIRGEIFFFKDRFIWRTVTPRDKPMGPLLVATFWPELPEKIDAVYEAPQEEKAVFFAGNEYWIYSASTLERGYPKPLTSLGLPPDVQRVDAAFNWSKNKKTYIFAGDKFWRYNEVKKKMDPGFPKLIADAWNAIPDNLDAVVDLQGGGHSYFFKGAYYLKLENQSLKSVKFGSIKSDWLGC

What was measured:
[1] = biological target: T1, Ac-PLG˜S(OBn)-LL-Ahxh-Hynic
[2] = biological target: T2, Ac-P-Cit-G˜Hphe-LA-Ahxh-Hynic
Ac-PRQ˜ITA-Ahxh-Hynic = biological target: T3, Ac-PRQ˜ITA-Ahxh-Hynic
[3] = biological target: T4, Hynic-ff-Ahx-PLG˜Hphe-OLEE-OH
[4] = biological target: T5, Ac-Hpro-Cit-G˜Hphe-TA-Ahxh-Hynic
[5] = biological target: T6, Ac-PL-NLys˜Hphe-L-Ahxh-Ac[C14]
Piv-PLG˜LYT-Ahxh-Hynic = biological target: T7, Piv-PLG˜LYT-Ahxh-Hynic
[6] = biological target: T8, Ac-NLys-PLG˜Hphe-RLA-Ahxh-Hynic
Ac-PLG˜Hphe-YL-Hynic = biological target: T9, Ac-PLG˜Hphe-YL-Hynic
[7] = biological target: T10, NLys-NLys-PLG˜Hphe-YL-Ahxh-Hynic
[8] = biological target: T11, Ac-PLG˜Hphe-YLR-Ahxh-Hynic
[9] = biological target: T12, Ac-NGlu-PLG˜Hphe-YL-Ambh-Hynic
[10] = biological target: T13, Ac-P-NLeu-G˜LL-Ahxh-Ac[C14]
Ac-PLG˜LHL-Ahxh-Hynic = biological target: T14, Ac-PLG˜LHL-Ahxh-Hynic
[11] = biological target: T15, Ac-P-DArg-R˜LTA-Ahxh-Hynic
[12] = biological target: T16, Ac-DArg-P-Aib-G˜Hphe-LA-Ahxh-Hynic
[13] = biological target: T17, Ac-POG˜Hphe-Smc-T-Ahxh-Hynic
[14] = biological target: T18, Ac-P-Cit-G˜Hphe-Cit-L-Ahxh-Hynic
[15] = biological target: T19, Ac-POG˜Hphe-LTR-Ahxh-Hynic
[16] = biological target: T20, Ac-PL-NLys-LL-dLeu-Ahxh-Ac[C14]
[17] = biological target: T21, Ac-P-Cit-G˜Hphe-L-Ahxh-Hynic
Ac-PR-Cit˜LSA-Ahxh-Hynic = biological target: T22, Ac-PR-Cit˜LSA-Ahxh-Hynic
[18] = biological target: T23, Ac-PLG˜Hphe-OL-Ambh-Hynic
[19] = biological target: T24, Ac-P-Cit-G˜Hphe-LA-Ahxh-Ac[C14]
[20] = biological target: T25, H-DArg-P-Cit-G˜cLeu-LA-Ahxh-Hynic
Ac-PLG˜LYS-Ahxh-Ac[C14] = biological target: T26, Ac-PLG˜LYS-Ahxh-Ac[C14]
Ac-PLG˜L-Cha-Ahxh-Hynic = biological target: T27, Ac-PLG˜L-Cha-Ahxh-Hynic
Ac-PLG˜LRA-Ahxh-Hynic = biological target: T28, Ac-PLG˜LRA-Ahxh-Hynic

Row | Protein | Kcat/Km [1] [M⁻¹ s⁻¹] | Kcat/Km [2] [M⁻¹ s⁻¹] | Kcat/Km (Ac-PRQ˜ITA-Ahxh-Hynic) [M⁻¹ s⁻¹] | Kcat/Km [3] [M⁻¹ s⁻¹] | Kcat/Km [4] [M⁻¹ s⁻¹] | Kcat/Km [5] [M⁻¹ s⁻¹] | Kcat/Km (Piv-PLG˜LYT-Ahxh-Hynic) [M⁻¹ s⁻¹] | Kcat/Km [6] [M⁻¹ s⁻¹] | Kcat/Km (Ac-PLG˜Hphe-YL-Hynic) [M⁻¹ s⁻¹] | Kcat/Km [7] [M⁻¹ s⁻¹] | Kcat/Km [8] [M⁻¹ s⁻¹] | Kcat/Km [10] [M⁻¹ s⁻¹] | Kcat/Km (Ac-PLG˜LHL-Ahxh-Hynic) [M⁻¹ s⁻¹] | Kcat/Km [11] [M⁻¹ s⁻¹] | Kcat/Km [12] [M⁻¹ s⁻¹] | Kcat/Km [13] [M⁻¹ s⁻¹] | Kcat/Km [14] [M⁻¹ s⁻¹] | Kcat/Km [15] [M⁻¹ s⁻¹] | Kcat/Km [16] [M⁻¹ s⁻¹] | Kcat/Km [17] [M⁻¹ s⁻¹] | further results
1 | B1 | 187000 | 584000 | 3520 | 6680 | 160000 | 289000 | 281000 | 373000 | > 100000 | 33800 | 243000 | 0 | 156000 | 0 | 0 | 85400 | 11400 | 105000 | 0 | 33300 | Kcat/Km [9]: > 100000 M⁻¹ s⁻¹; Kcat/Km (Ac-PR-Cit˜LSA-Ahxh-Hynic): 40100 M⁻¹ s⁻¹; Kcat/Km [18]: 57700 M⁻¹ s⁻¹; Kcat/Km [19]: 652000 M⁻¹ s⁻¹; Kcat/Km [20]: 0 M⁻¹ s⁻¹; Kcat/Km (Ac-PLG˜LYS-Ahxh-Ac[C14]): > 500000 M⁻¹ s⁻¹; Kcat/Km (Ac-PLG˜L-Cha-Ahxh-Hynic): 147000 M⁻¹ s⁻¹; Kcat/Km (Ac-PLG˜LRA-Ahxh-Hynic): > 500000 M⁻¹ s⁻¹
2 | B2 | 180000 | 827000 | 2400 | 81600 | 99600 | 465000 | 569000 | 461000 | 63200 | 26300 | 364000 | 0 | 73700 | 6880 | 18600 | > 500000 | 42600 | > 500000 | 0 | 161000 | Kcat/Km (Ac-PR-Cit˜LSA-Ahxh-Hynic): 14700 M⁻¹ s⁻¹; Kcat/Km [18]: 42700 M⁻¹ s⁻¹; Kcat/Km [19]: > 750000 M⁻¹ s⁻¹; Kcat/Km [20]: 77 M⁻¹ s⁻¹; Kcat/Km (Ac-PLG˜LYS-Ahxh-Ac[C14]): > 500000 M⁻¹ s⁻¹; Kcat/Km (Ac-PLG˜L-Cha-Ahxh-Hynic): 120000 M⁻¹ s⁻¹; Kcat/Km (Ac-PLG˜LRA-Ahxh-Hynic): > 500000 M⁻¹ s⁻¹

Reference: patent US20050106100
